Legend:
[1] = target: fibroblast activation protein (FAP) on transfected HT1080 cells (UniProt Q12884 1-760, limits assumed); experiment: cell-based or functional assay
[2] = target: T1, EGFR on EGFR-positive tumor cell lines (UniProt P00533 25-1210, limits assumed); experiment: flow cytometry, Colo205 cells
T1 construct: whole, on cells; The cell line is named under assay or readout; also called EGFR+ cell lines

[3] = target: T1, EGFR on EGFR-positive tumor cell lines; experiment: flow cytometry, HCT116 cells
EGFR-Fc = target: T2, EGFR-Fc (UniProt P00533 25-645); experiment: ELISA, EGFR-Fc
T2 construct: also called purified EGFR-Fc; not shown: Fc part

[4] = target: T1, EGFR on EGFR-positive tumor cell lines; experiment: cell-based or functional assay

| Binder | EC50 [2] | EC50 [3] | EC50 (EGFR-Fc) | other results |
| --- | --- | --- | --- | --- |
| Db anti-FAP-Glyco-scTRAIL3-FAVSGAA (other, 16 aa peptide linker with two N-glycosylation sites) LEASDYKDDDDKGTGQVQLVQSGAEVKKPGASVKVSCKASGYTFTENIIHWVRQAPGQGLEWMGWFHPGSGSIKYNEKFKDRVTMTADTSTSTVYMELSSLRSEDTAVYYCARHGGTGRGAMDYWGQGTLVTVSSGGGGSDIQMTQSPSSLSASVGDRVTITCRASKSVSTSAYSYMHWYQQKPGKAPKLLIYLASNLESGVPSRFSGSGSGTDFTLTISSLQPEDFATYYCQHSRELPYTFGQGTKLEIKRAAAGNGTSNGTSEFGGAAAHITGTRGRSNTLSSPNSKNEKALGRKINSWESSRSGHSFLSNLHLRNGELVIHEKGFYYIYSQTYFRFQEEIKENTKNDKQMVQYIYKYTSYPDPILLMKSARNSCWSKDAEYGLYSIYQGGIFELKENDRIFVSVTNEHLIDMDHEASFFGAFAVSGAAAHITGTRGRSNTLSSPNSKNEKALGRKINSWESSRSGHSFLSNLHLRNGELVIHEKGFYYIYSQTYFRFQEEIKENTKNDKQMVQYIYKYTSYPDPILLMKSARNSCWSKDAEYGLYSIYQGGIFELKENDRIFVSVTNEHLIDMDHEASFFGAFAVSGAAAHITGTRGRSNTLSSPNSKNEKALGRKINSWESSRSGHSFLSNLHLRNGELVIHEKGFYYIYSQTYFRFQEEIKENTKNDKQMVQYIYKYTSYPDPILLMKSARNSCWSKDAEYGLYSIYQGGIFELKENDRIFVSVTNEHLIDMDHEASFFGAFAVS | – | – | – | EC50 of cytotoxicity on HT1080 FAP+ cells, competing with excess anti-FAP IgG [1]: 0.04 nM; EC50 of cytotoxicity on HT1080 FAP+ cells, with bortezomib, competing conditions [1]: 0.0041 nM; EC50 of cytotoxicity on HT1080 FAP+ cells, with bortezomib, non-competing conditions [1]: 0.002 nM; EC50 of cytotoxicity on HT1080 FAP+ cells, without αFAP IgG [1]: 0.029 nM |
| anti-EGFR IgG HC-scTRAIL3-FAVSGAA (other, scTRAIL3-FAVSGAA at the C-terminus of the heavy chain; also called IgG-heavy chain (HC)-scTRAIL3) heavy: ASDYKDDDDKGAEVQLVESGGGLVQPGGSLRLSCAASGFSLTNYGVHWVRQAPGKGLEWLGVIWSGGNTDYNTPFTSRFTISRDNSKNTLYLQMNSLRAEDTAVYYCARALTYYDYEFAYWGQGTTVTVSSASTKGPSVFPLAPSSKSTSGGTAALGCLVKDYFPEPVTVSWNSGALTSGVHTFPAVLQSSGLYSLSSVVTVPSSSLGTQTYICNVNHKPSNTKVDKKVEPKSCDKTHTCPPCPAPPVAGPSVFLFPPKPKDTLMISRTPEVTCVVVDVSHEDPEVKFNWYVDGVEVHNAKTKPREEQYNSTYRVVSVLTVLHQDWLNGKEYKCKVSNKGLPSSIEKTISKAKGQPREPQVYTLPPSRDELTKNQVSLTCLVKGFYPSDIAVEWESNGQPENNYKTTPPVLDSDGSFFLYSKLTVDKSRWQQGNVFSCSVMHEALHNHYTQKSLSLSPGKAAGNGTSNGTSEFGGAAAHITGTRGRSNTLSSPNSKNEKALGRKINSWESSRSGHSFLSNLHLRNGELVIHEKGFYYIYSQTYFRFQEEIKENTKNDKQMVQYIYKYTSYPDPILLMKSARNSCWSKDAEYGLYSIYQGGIFELKENDRIFVSVTNEHLIDMDHEASFFGAFAVSGAAAHITGTRGRSNTLSSPNSKNEKALGRKINSWESSRSGHSFLSNLHLRNGELVIHEKGFYYIYSQTYFRFQEEIKENTKNDKQMVQYIYKYTSYPDPILLMKSARNSCWSKDAEYGLYSIYQGGIFELKENDRIFVSVTNEHLIDMDHEASFFGAFAVSGAAAHITGTRGRSNTLSSPNSKNEKALGRKINSWESSRSGHSFLSNLHLRNGELVIHEKGFYYIYSQTYFRFQEEIKENTKNDKQMVQYIYKYTSYPDPILLMKSARNSCWSKDAEYGLYSIYQGGIFELKENDRIFVSVTNEHLIDMDHEASFFGAFAVS light: DIQLTQSPSFLSASVGDRVTITCRASQSIGTNIHWYQQKPGKAPKLLIKYASESISGVPSRFSGSGSGTEFTLTISSLQPEDFATYYCQQNNNWPTTFGAGTKLEIKRTVAAPSVFIFPPSDEQLKSGTASVVCLLNNFYPREAKVQWKVDNALQSGNSQESVTEQDSKDSTYSLSSTLTLSKADYEKHKVYACEVTHQGLSSPVTKSFNRGEC | 0.081 nM | 0.118 nM | 0.343 nM | – |
| scFvhu225-EHD2-scTRAIL3-FLVGGGPQRVA (other) DYKDDDDKGGGGSGTEVQLVESGGGLVQPGGSLRLSCAASGFSLTNYGVHWVRQAPGKGLEWLGVIWSGGNTDYNTPFTSRFTISRDNSKNTLYLQMNSLRAEDTAVYYCARALTYYDYEFAYWGQGTTVTVSSGGGGSGGGGSGGGGSDIQLTQSPSFLSASVGDRVTITCRASQSIGTNIHWYQQKPGKAPKLLIKYASESISGVPSRFSGSGSGTEFTLTISSLQPEDFATYYCQQNNNWPTTFGAGTKLEIKRAAAGGSGGDFTPPTVKILQSSCDGGGHFPPTIQLLCLVSGYTPGTINITWLEDGQVMDVDLSTASTTQEGELASTQSELTLSQKHWLSDRTYTCQVTYQGHTFEDSTKKCADSNGGSGGASSGGGPQRVAAHITGTRGRSNTLSSPNSKNEKALGRKINSWESSRSGHSFLSNLHLRNGELVIHEKGFYYIYSQTYFRFQEEIKENTKNDKQMVQYIYKYTSYPDPILLMKSARNSCWSKDAEYGLYSIYQGGIFELKENDRIFVSVTNEHLIDMDHEASFFGAFLVGGGPQRVAAHITGTRGRSNTLSSPNSKNEKALGRKINSWESSRSGHSFLSNLHLRNGELVIHEKGFYYIYSQTYFRFQEEIKENTKNDKQMVQYIYKYTSYPDPILLMKSARNSCWSKDAEYGLYSIYQGGIFELKENDRIFVSVTNEHLIDMDHEASFFGAFLVGGGPQRVAAHITGTRGRSNTLSSPNSKNEKALGRKINSWESSRSGHSFLSNLHLRNGELVIHEKGFYYIYSQTYFRFQEEIKENTKNDKQMVQYIYKYTSYPDPILLMKSARNSCWSKDAEYGLYSIYQGGIFELKENDRIFVSVTNEHLIDMDHEASFFGAFLVG | – | – | – | EC50 of cell death induction, Colo205, with Bortezomib [4]: 0.0018 nM; EC50 of cell death induction, Colo205, without bortezomib [4]: 0.0119 nM; EC50 of cell death induction, Colo205 in presence of Cetuximab, with bortezomib [4]: 0.0067 nM; EC50 of cell death induction, Colo205 in presence of Cetuximab, without bortezomib [4]: 0.0693 nM |

The next lines start with results.

| EC50 [2] | EC50 [3] | EC50 (EGFR-Fc) | Binder | other results |
| --- | --- | --- | --- | --- |
| 0.148 nM | 0.181 nM | 0.46 nM | anti-EGFR IgG LC-scTRAIL3-FAVSGAA (other, scTRAIL3-FAVSGAA at the C-terminus of the kappa light chain through a 15 aa peptide with two N-glycosylation sites; also called IgG-light chain (LC)-scTRAIL3) heavy: ASDYKDDDDKGAEVQLVESGGGLVQPGGSLRLSCAASGFSLTNYGVHWVRQAPGKGLEWLGVIWSGGNTDYNTPFTSRFTISRDNSKNTLYLQMNSLRAEDTAVYYCARALTYYDYEFAYWGQGTTVTVSSASTKGPSVFPLAPSSKSTSGGTAALGCLVKDYFPEPVTVSWNSGALTSGVHTFPAVLQSSGLYSLSSVVTVPSSSLGTQTYICNVNHKPSNTKVDKKVEPKSCDKTHTCPPCPAPPVAGPSVFLFPPKPKDTLMISRTPEVTCVVVDVSHEDPEVKFNWYVDGVEVHNAKTKPREEQYNSTYRVVSVLTVLHQDWLNGKEYKCKVSNKGLPSSIEKTISKAKGQPREPQVYTLPPSRDELTKNQVSLTCLVKGFYPSDIAVEWESNGQPENNYKTTPPVLDSDGSFFLYSKLTVDKSRWQQGNVFSCSVMHEALHNHYTQKSLSLSPGK light: DIQLTQSPSFLSASVGDRVTITCRASQSIGTNIHWYQQKPGKAPKLLIKYASESISGVPSRFSGSGSGTEFTLTISSLQPEDFATYYCQQNNNWPTTFGAGTKLEIKRTVAAPSVFIFPPSDEQLKSGTASVVCLLNNFYPREAKVQWKVDNALQSGNSQESVTEQDSKDSTYSLSSTLTLSKADYEKHKVYACEVTHQGLSSPVTKSFNRGECAAGNGTSNGTSEFGGAAAHITGTRGRSNTLSSPNSKNEKALGRKINSWESSRSGHSFLSNLHLRNGELVIHEKGFYYIYSQTYFRFQEEIKENTKNDKQMVQYIYKYTSYPDPILLMKSARNSCWSKDAEYGLYSIYQGGIFELKENDRIFVSVTNEHLIDMDHEASFFGAFAVSGAAAHITGTRGRSNTLSSPNSKNEKALGRKINSWESSRSGHSFLSNLHLRNGELVIHEKGFYYIYSQTYFRFQEEIKENTKNDKQMVQYIYKYTSYPDPILLMKSARNSCWSKDAEYGLYSIYQGGIFELKENDRIFVSVTNEHLIDMDHEASFFGAFAVSGAAAHITGTRGRSNTLSSPNSKNEKALGRKINSWESSRSGHSFLSNLHLRNGELVIHEKGFYYIYSQTYFRFQEEIKENTKNDKQMVQYIYKYTSYPDPILLMKSARNSCWSKDAEYGLYSIYQGGIFELKENDRIFVSVTNEHLIDMDHEASFFGAFAVS | – |
| 0.146 nM | 0.091 nM | 0.315 nM | anti-EGFR IgG LC/HC-scTRAIL3-FAVSGAA (other, scTRAIL3-FAVSGAA on both light and heavy chains (tetrameric form)) heavy: ASDYKDDDDKGAEVQLVESGGGLVQPGGSLRLSCAASGFSLTNYGVHWVRQAPGKGLEWLGVIWSGGNTDYNTPFTSRFTISRDNSKNTLYLQMNSLRAEDTAVYYCARALTYYDYEFAYWGQGTTVTVSSASTKGPSVFPLAPSSKSTSGGTAALGCLVKDYFPEPVTVSWNSGALTSGVHTFPAVLQSSGLYSLSSVVTVPSSSLGTQTYICNVNHKPSNTKVDKKVEPKSCDKTHTCPPCPAPPVAGPSVFLFPPKPKDTLMISRTPEVTCVVVDVSHEDPEVKFNWYVDGVEVHNAKTKPREEQYNSTYRVVSVLTVLHQDWLNGKEYKCKVSNKGLPSSIEKTISKAKGQPREPQVYTLPPSRDELTKNQVSLTCLVKGFYPSDIAVEWESNGQPENNYKTTPPVLDSDGSFFLYSKLTVDKSRWQQGNVFSCSVMHEALHNHYTQKSLSLSPGKAAGNGTSNGTSEFGGAAAHITGTRGRSNTLSSPNSKNEKALGRKINSWESSRSGHSFLSNLHLRNGELVIHEKGFYYIYSQTYFRFQEEIKENTKNDKQMVQYIYKYTSYPDPILLMKSARNSCWSKDAEYGLYSIYQGGIFELKENDRIFVSVTNEHLIDMDHEASFFGAFAVSGAAAHITGTRGRSNTLSSPNSKNEKALGRKINSWESSRSGHSFLSNLHLRNGELVIHEKGFYYIYSQTYFRFQEEIKENTKNDKQMVQYIYKYTSYPDPILLMKSARNSCWSKDAEYGLYSIYQGGIFELKENDRIFVSVTNEHLIDMDHEASFFGAFAVSGAAAHITGTRGRSNTLSSPNSKNEKALGRKINSWESSRSGHSFLSNLHLRNGELVIHEKGFYYIYSQTYFRFQEEIKENTKNDKQMVQYIYKYTSYPDPILLMKSARNSCWSKDAEYGLYSIYQGGIFELKENDRIFVSVTNEHLIDMDHEASFFGAFAVS light: DIQLTQSPSFLSASVGDRVTITCRASQSIGTNIHWYQQKPGKAPKLLIKYASESISGVPSRFSGSGSGTEFTLTISSLQPEDFATYYCQQNNNWPTTFGAGTKLEIKRTVAAPSVFIFPPSDEQLKSGTASVVCLLNNFYPREAKVQWKVDNALQSGNSQESVTEQDSKDSTYSLSSTLTLSKADYEKHKVYACEVTHQGLSSPVTKSFNRGECAAGNGTSNGTSEFGGAAAHITGTRGRSNTLSSPNSKNEKALGRKINSWESSRSGHSFLSNLHLRNGELVIHEKGFYYIYSQTYFRFQEEIKENTKNDKQMVQYIYKYTSYPDPILLMKSARNSCWSKDAEYGLYSIYQGGIFELKENDRIFVSVTNEHLIDMDHEASFFGAFAVSGAAAHITGTRGRSNTLSSPNSKNEKALGRKINSWESSRSGHSFLSNLHLRNGELVIHEKGFYYIYSQTYFRFQEEIKENTKNDKQMVQYIYKYTSYPDPILLMKSARNSCWSKDAEYGLYSIYQGGIFELKENDRIFVSVTNEHLIDMDHEASFFGAFAVSGAAAHITGTRGRSNTLSSPNSKNEKALGRKINSWESSRSGHSFLSNLHLRNGELVIHEKGFYYIYSQTYFRFQEEIKENTKNDKQMVQYIYKYTSYPDPILLMKSARNSCWSKDAEYGLYSIYQGGIFELKENDRIFVSVTNEHLIDMDHEASFFGAFAVS | – |
